B1: glmS ribozyme (parent)
chain: AUAAAAGCGCCAGAACUACAGAAAUGUAGUUGACGAGGAGGAGGUUUAUCGAAUUUUCGGCGGAUGCCUCCAAA

± gives the standard error. Fewer inactive variants are shown than the library holds.

Holding throughout (conditions): with glucosamine-6-phosphate
Series [1] covers variants of B1. Description: self-cleavage kobs at 40 uM GlcN6P; higher = faster cleavage; RNA array. The gist of the method: (§1)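 Barcoded ribozyme variants, transcribed in situ by E. coli RNA polymerase on sequenced MiSeq chips, were followed via a hybridised Cy3 probe at 37 °C. Glucosamine-6-phosphate ranged from 40 μM to 10 mM in HEPES/KCl/Mg(OAc)2 buffer. kobs came from decay fits to per-tile medians, and kcat and KM from weighted Michaelis–Menten fits.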

The variants in series [2] derive from B1. Description: self-cleavage kobs at 2500 uM GlcN6P; higher = faster cleavage; RNA array. In short, it runs like this:
as §1

Series [3] covers variants of B1. The experiment in a line: self-cleavage kobs at 10000 uM GlcN6P; higher = faster cleavage; RNA array. The gist of the method: as §1
The variants in series [4] derive from B1. Description: self-cleavage kobs at 160 uM GlcN6P; higher = faster cleavage; RNA array. The gist of the method:
as §1

Series [5] covers variants of B1. Description: self-cleavage kobs at 640 uM GlcN6P; higher = faster cleavage; RNA array. In short, it runs like this:
as §1

The results in this text go back to the supplement of paper PMC7125110.

As to A53C U56C, the “self-cleavage kobs at 40 uM GlcN6P” value with glucosamine-6-phosphate [1] was less than 1e-05 s⁻¹. Besides, the “self-cleavage kobs at 2500 uM GlcN6P” value with glucosamine-6-phosphate [2] was 0.000121 ± 2e-05 s⁻¹.

As for A14C G62C G63A C68G, the “self-cleavage kobs at 40 uM GlcN6P” value with glucosamine-6-phosphate [1] is less than 1e-05 s⁻¹.

For G9C C11U U31C A36G G38A C50G U69G C70G, the “self-cleavage kobs at 40 uM GlcN6P” value with glucosamine-6-phosphate [1] is 0.00075 ± 0.00022 s⁻¹. Also, in the series with glucosamine-6-phosphate [3], the “self-cleavage kobs at 10000 uM GlcN6P” value stood at 0.000818 ± 0.00021 s⁻¹.

For the variant A15C A52U A53G U56C, the “self-cleavage kobs at 40 uM GlcN6P” value with glucosamine-6-phosphate [1] is less than 1e-05 s⁻¹. For the same variant, in the series with glucosamine-6-phosphate [3], the “self-cleavage kobs at 10000 uM GlcN6P” value is less than 1e-05 s⁻¹.

Regarding C8U G62U U69G, in the series with glucosamine-6-phosphate [1], the “self-cleavage kobs at 40 uM GlcN6P” value worked out at 0.00021 ± 7.2e-05 s⁻¹. Also, the “self-cleavage kobs at 10000 uM GlcN6P” value in the series with glucosamine-6-phosphate [3] came to 0.000358 ± 0.00015 s⁻¹.

Consider C8U G51C, for which the “self-cleavage kobs at 40 uM GlcN6P” value with glucosamine-6-phosphate [1] was less than 1e-05 s⁻¹. The “self-cleavage kobs at 160 uM GlcN6P” value with glucosamine-6-phosphate [4] is less than 1e-05 s⁻¹. Also, in the series with glucosamine-6-phosphate [2], the “self-cleavage kobs at 2500 uM GlcN6P” value is less than 1e-05 s⁻¹. For the same variant, in the series with glucosamine-6-phosphate [3], the “self-cleavage kobs at 10000 uM GlcN6P” value was less than 1e-05 s⁻¹.

For C8A A53C G59A C68A, the “self-cleavage kobs at 40 uM GlcN6P” value with glucosamine-6-phosphate [1] is less than 1e-05 s⁻¹. Besides, the “self-cleavage kobs at 10000 uM GlcN6P” value with glucosamine-6-phosphate [3] was less than 1e-05 s⁻¹.

Regarding C11G C58U, the “self-cleavage kobs at 40 uM GlcN6P” value with glucosamine-6-phosphate [1] was less than 1e-05 s⁻¹. For the same variant, in the series with glucosamine-6-phosphate [4], the “self-cleavage kobs at 160 uM GlcN6P” value was less than 1e-05 s⁻¹. For the same variant, the “self-cleavage kobs at 10000 uM GlcN6P” value with glucosamine-6-phosphate [3] was less than 1e-05 s⁻¹.

Take U30C U55A U57G: the “self-cleavage kobs at 40 uM GlcN6P” value in the series with glucosamine-6-phosphate [1] was less than 1e-05 s⁻¹.

Consider A33U A42C U47G U54A, for which, in the series with glucosamine-6-phosphate [1], the “self-cleavage kobs at 40 uM GlcN6P” value is less than 1e-05 s⁻¹. Moreover, the “self-cleavage kobs at 640 uM GlcN6P” value with glucosamine-6-phosphate [5] was less than 1e-05 s⁻¹. In addition, the “self-cleavage kobs at 2500 uM GlcN6P” value in the series with glucosamine-6-phosphate [2] was less than 1e-05 s⁻¹. Also, the “self-cleavage kobs at 10000 uM GlcN6P” value with glucosamine-6-phosphate [3] is less than 1e-05 s⁻¹.

Turning to G35C G62A, in the series with glucosamine-6-phosphate [1], the “self-cleavage kobs at 40 uM GlcN6P” value is less than 1e-05 s⁻¹. Also, in the series with glucosamine-6-phosphate [4], the “self-cleavage kobs at 160 uM GlcN6P” value was less than 1e-05 s⁻¹. Also, in the series with glucosamine-6-phosphate [5], the “self-cleavage kobs at 640 uM GlcN6P” value was less than 1e-05 s⁻¹. Also, the “self-cleavage kobs at 2500 uM GlcN6P” value in the series with glucosamine-6-phosphate [2] was less than 1e-05 s⁻¹. Besides, the “self-cleavage kobs at 10000 uM GlcN6P” value with glucosamine-6-phosphate [3] is less than 1e-05 s⁻¹.

As for G7U C10U G13C A52G, the “self-cleavage kobs at 40 uM GlcN6P” value with glucosamine-6-phosphate [1] was less than 1e-05 s⁻¹.

Turning to C34A A53C, in the series with glucosamine-6-phosphate [1], the “self-cleavage kobs at 40 uM GlcN6P” value is less than 1e-05 s⁻¹. Further, the “self-cleavage kobs at 640 uM GlcN6P” value in the series with glucosamine-6-phosphate [5] was less than 1e-05 s⁻¹. Besides, the “self-cleavage kobs at 2500 uM GlcN6P” value with glucosamine-6-phosphate [2] was less than 1e-05 s⁻¹. Moreover, in the series with glucosamine-6-phosphate [3], the “self-cleavage kobs at 10000 uM GlcN6P” value is less than 1e-05 s⁻¹.

As to C10U C34G G41U A52U C58A G66A C71A, in the series with glucosamine-6-phosphate [1], the “self-cleavage kobs at 40 uM GlcN6P” value is less than 1e-05 s⁻¹.

Take G7A A39C A52U G60A C67U: the “self-cleavage kobs at 40 uM GlcN6P” value in the series with glucosamine-6-phosphate [1] was less than 1e-05 s⁻¹.

For U47G C70U, the “self-cleavage kobs at 40 uM GlcN6P” value with glucosamine-6-phosphate [1] came out at 0.000323 ± 3.2e-05 s⁻¹. Further, the “self-cleavage kobs at 160 uM GlcN6P” value with glucosamine-6-phosphate [4] came out at 0.000641 ± 8.8e-05 s⁻¹. The “self-cleavage kobs at 640 uM GlcN6P” value with glucosamine-6-phosphate [5] came to 0.00192 ± 0.00055 s⁻¹. In addition, the “self-cleavage kobs at 2500 uM GlcN6P” value with glucosamine-6-phosphate [2] stood at 0.000583 ± 0.00011 s⁻¹.

For the variant G29U A36C G38A G40A, the “self-cleavage kobs at 40 uM GlcN6P” value in the series with glucosamine-6-phosphate [1] is less than 1e-05 s⁻¹. For the same variant, in the series with glucosamine-6-phosphate [2], the “self-cleavage kobs at 2500 uM GlcN6P” value was less than 1e-05 s⁻¹. In the series with glucosamine-6-phosphate [3], the “self-cleavage kobs at 10000 uM GlcN6P” value was less than 1e-05 s⁻¹.

As to G13A U30C A42U, the “self-cleavage kobs at 40 uM GlcN6P” value with glucosamine-6-phosphate [1] is less than 1e-05 s⁻¹. The “self-cleavage kobs at 10000 uM GlcN6P” value with glucosamine-6-phosphate [3] is less than 1e-05 s⁻¹.

Take A14C A36G C71U: the “self-cleavage kobs at 40 uM GlcN6P” value with glucosamine-6-phosphate [1] was less than 1e-05 s⁻¹.

As to C10U G37A, the “self-cleavage kobs at 40 uM GlcN6P” value with glucosamine-6-phosphate [1] is less than 1e-05 s⁻¹. The “self-cleavage kobs at 160 uM GlcN6P” value with glucosamine-6-phosphate [4] is less than 1e-05 s⁻¹. Moreover, the “self-cleavage kobs at 10000 uM GlcN6P” value with glucosamine-6-phosphate [3] was less than 1e-05 s⁻¹.

Take U30C A52U: the “self-cleavage kobs at 40 uM GlcN6P” value with glucosamine-6-phosphate [1] was less than 1e-05 s⁻¹. The “self-cleavage kobs at 640 uM GlcN6P” value with glucosamine-6-phosphate [5] is less than 1e-05 s⁻¹.

With A12G G13A C61G, in the series with glucosamine-6-phosphate [1], the “self-cleavage kobs at 40 uM GlcN6P” value was less than 1e-05 s⁻¹. Moreover, the “self-cleavage kobs at 10000 uM GlcN6P” value with glucosamine-6-phosphate [3] was less than 1e-05 s⁻¹.

Turning to G38U U49A C58A, the “self-cleavage kobs at 40 uM GlcN6P” value in the series with glucosamine-6-phosphate [1] was less than 1e-05 s⁻¹.

G43U C68A: in the series with glucosamine-6-phosphate [1], the “self-cleavage kobs at 40 uM GlcN6P” value stood at 0.00235 ± 0.00036 s⁻¹. Also, the “self-cleavage kobs at 160 uM GlcN6P” value with glucosamine-6-phosphate [4] is 0.00333 ± 0.00054 s⁻¹. Further, the “self-cleavage kobs at 640 uM GlcN6P” value with glucosamine-6-phosphate [5] was 0.0194 ± 0.0032 s⁻¹. In addition, the “self-cleavage kobs at 2500 uM GlcN6P” value in the series with glucosamine-6-phosphate [2] stood at 0.0175 ± 0.005 s⁻¹. Besides, the “self-cleavage kobs at 10000 uM GlcN6P” value in the series with glucosamine-6-phosphate [3] stood at 0.0761 ± 0.024 s⁻¹.

On to G38A G60U U69G, for which the “self-cleavage kobs at 40 uM GlcN6P” value in the series with glucosamine-6-phosphate [1] was less than 1e-05 s⁻¹. The “self-cleavage kobs at 10000 uM GlcN6P” value with glucosamine-6-phosphate [3] was less than 1e-05 s⁻¹.

For A14G A53C C71U, in the series with glucosamine-6-phosphate [1], the “self-cleavage kobs at 40 uM GlcN6P” value was determined as 0.000387 ± 8.7e-05 s⁻¹. In addition, the “self-cleavage kobs at 640 uM GlcN6P” value with glucosamine-6-phosphate [5] stood at 0.00168 ± 0.00056 s⁻¹. Also, in the series with glucosamine-6-phosphate [2], the “self-cleavage kobs at 2500 uM GlcN6P” value amounted to 0.00736 ± 0.003 s⁻¹. In addition, the “self-cleavage kobs at 10000 uM GlcN6P” value with glucosamine-6-phosphate [3] was 0.00798 ± 0.002 s⁻¹.
